From publication PMC3035457 (Nucleic Acids Research, 2010)

Biological target: T1, MBP-GCM1(167–349) (human, UniProt Q9NP62 167-349)
T1 sequence: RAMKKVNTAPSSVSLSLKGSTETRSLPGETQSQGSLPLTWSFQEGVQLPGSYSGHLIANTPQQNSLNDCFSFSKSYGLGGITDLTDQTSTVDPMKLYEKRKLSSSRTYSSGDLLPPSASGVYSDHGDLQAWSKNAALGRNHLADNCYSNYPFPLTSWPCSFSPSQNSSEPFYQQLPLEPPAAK
Test: pull-down

B1: recombinant DUSP23-FLAG (DUSP23 with a C-terminal FLAG tag) (enzyme)
chain: MGVQPPNFSWVLPGRLAGLALPRLPAHYQFLLDLGVRHLVSLTERGPPHSDSCPGLTLHRLRIPDFCPPAPDQIDRFVQIVDEANARGEAVGVHCALGFGRTGTMLACYLVKERGLAAGDAIAEIRRLRPGSIETYEQEKAVFQFYQRTK
B1: binds.
